From article PMC2744881 (Journal of molecular biology, 2009)

T1: SufD of the purified SufB-SufC-SufD complex (E. coli, UniProt P77689 1-423)
T1 sequence: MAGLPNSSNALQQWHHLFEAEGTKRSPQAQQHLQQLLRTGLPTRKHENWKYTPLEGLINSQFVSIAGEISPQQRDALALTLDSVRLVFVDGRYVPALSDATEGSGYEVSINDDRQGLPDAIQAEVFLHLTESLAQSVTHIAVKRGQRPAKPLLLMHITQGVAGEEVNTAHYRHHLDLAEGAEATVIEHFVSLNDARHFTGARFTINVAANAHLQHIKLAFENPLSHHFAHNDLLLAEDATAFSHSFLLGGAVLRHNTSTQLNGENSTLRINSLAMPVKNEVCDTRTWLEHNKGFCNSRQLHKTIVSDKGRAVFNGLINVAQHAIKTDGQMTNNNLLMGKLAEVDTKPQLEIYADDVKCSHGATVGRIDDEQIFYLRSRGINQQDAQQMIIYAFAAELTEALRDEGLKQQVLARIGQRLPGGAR

T2: N-terminally His10-tagged SufC protein (E. coli, UniProt P77499 1-248)
T2 sequence (looked up): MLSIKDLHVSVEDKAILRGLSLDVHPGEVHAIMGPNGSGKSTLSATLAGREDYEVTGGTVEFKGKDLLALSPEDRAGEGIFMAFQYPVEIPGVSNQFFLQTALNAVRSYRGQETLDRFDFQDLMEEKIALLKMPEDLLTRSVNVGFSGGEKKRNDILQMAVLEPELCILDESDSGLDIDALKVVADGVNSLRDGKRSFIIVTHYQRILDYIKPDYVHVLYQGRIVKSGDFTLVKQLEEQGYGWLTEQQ

B1: SufB of the purified SufB-SufC-SufD complex (natural protein, E. coli, UniProt P77522 1-495, looked up)
chain: MSRNTEATDDVKTWTGGPLNYKEGFFTQLATDELAKGINEEVVRAISAKRNEPEWMLEFRLNAYRAWLEMEEPHWLKAHYDKLNYQDYSYYSAPSCGNCDDTCASEPGAVQQTGANAFLSKEVEAAFEQLGVPVREGKEVAVDAIFDSVSVATTYREKLAEQGIIFCSFGEAIHDHPELVRKYLGTVVPGNDNFFAALNAAVASDGTFIYVPKGVRCPMELSTYFRINAEKTGQFERTILVADEDSYVSYIEGCSAPVRDSYQLHAAVVEVIIHKNAEVKYSTVQNWFPGDNNTGGILNFVTKRALCEGENSKMSWTQSETGSAITWKYPSCILRGDNSIGEFYSVALTSGHQQADTGTKMIHIGKNTKSTIISKGISAGHSQNSYRGLVKIMPTATNARNFTQCDSMLIGANCGAHTFPYVECRNNSAQLEHEATTSRIGEDQLFYCLQRGISEEDAISMIVNGFCKDVFSELPLEFAVEAQKLLAISLEHSVG

Legend:
[1] = target: T1, SufD of the purified SufB-SufC-SufD …; test: SEC
[2] = target: B1; test: SEC
[3] = target: T2, N-terminally His10-tagged SufC protein; test: SEC
crystal structure = target: the molecule itself; test: crystal structure
SEC = target: the molecule itself; test: SEC

Binder | stoichiometry N [1] | stoichiometry N (SEC) | also measured
SufC of the purified SufB-SufC-SufD complex (natural protein, E. coli) MLSIKDLHVSVEDKAILRGLSLDVHPGEVHAIMGPNGSGKSTLSATLAGREDYEVTGGTVEFKGKDLLALSPEDRAGEGIFMAFQYPVEIPGVSNQFFLQTALNAVRSYRGQETLDRFDFQDLMEEKIALLKMPEDLLTRSVNVGFSGGEKKRNDILQMAVLEPELCILDESDSGLDIDALKVVADGVNSLRDGKRSFIIVTHYQRILDYIKPDYVHVLYQGRIVKSGDFTLVKQLEEQGYGWLTEQQ | ~2 |  | stoichiometry N [2]: ~2
SufD protein (natural protein, E. coli, UniProt P77689 1-423, looked up) MAGLPNSSNALQQWHHLFEAEGTKRSPQAQQHLQQLLRTGLPTRKHENWKYTPLEGLINSQFVSIAGEISPQQRDALALTLDSVRLVFVDGRYVPALSDATEGSGYEVSINDDRQGLPDAIQAEVFLHLTESLAQSVTHIAVKRGQRPAKPLLLMHITQGVAGEEVNTAHYRHHLDLAEGAEATVIEHFVSLNDARHFTGARFTINVAANAHLQHIKLAFENPLSHHFAHNDLLLAEDATAFSHSFLLGGAVLRHNTSTQLNGENSTLRINSLAMPVKNEVCDTRTWLEHNKGFCNSRQLHKTIVSDKGRAVFNGLINVAQHAIKTDGQMTNNNLLMGKLAEVDTKPQLEIYADDVKCSHGATVGRIDDEQIFYLRSRGINQQDAQQMIIYAFAAELTEALRDEGLKQQVLARIGQRLPGGAR |  |  | stoichiometry N [3]: ~1; stoichiometry N (crystal structure): 2
N-terminal His-tag SufD with H360S mutation (natural protein, E. coli) MAGLPNSSNALQQWHHLFEAEGTKRSPQAQQHLQQLLRTGLPTRKHENWKYTPLEGLINSQFVSIAGEISPQQRDALALTLDSVRLVFVDGRYVPALSDATEGSGYEVSINDDRQGLPDAIQAEVFLHLTESLAQSVTHIAVKRGQRPAKPLLLMHITQGVAGEEVNTAHYRHHLDLAEGAEATVIEHFVSLNDARHFTGARFTINVAANAHLQHIKLAFENPLSHHFAHNDLLLAEDATAFSHSFLLGGAVLRHNTSTQLNGENSTLRINSLAMPVKNEVCDTRTWLEHNKGFCNSRQLHKTIVSDKGRAVFNGLINVAQHAIKTDGQMTNNNLLMGKLAEVDTKPQLEIYADDVKCSSGATVGRIDDEQIFYLRSRGINQQDAQQMIIYAFAAELTEALRDEGLKQQVLARIGQRLPGGAR |  | 2 | 
wild-type SufD (reference of the gel filtration of His-tagged SufD proteins) (natural protein, E. coli) MAGLPNSSNALQQWHHLFEAEGTKRSPQAQQHLQQLLRTGLPTRKHENWKYTPLEGLINSQFVSIAGEISPQQRDALALTLDSVRLVFVDGRYVPALSDATEGSGYEVSINDDRQGLPDAIQAEVFLHLTESLAQSVTHIAVKRGQRPAKPLLLMHITQGVAGEEVNTAHYRHHLDLAEGAEATVIEHFVSLNDARHFTGARFTINVAANAHLQHIKLAFENPLSHHFAHNDLLLAEDATAFSHSFLLGGAVLRHNTSTQLNGENSTLRINSLAMPVKNEVCDTRTWLEHNKGFCNSRQLHKTIVSDKGRAVFNGLINVAQHAIKTDGQMTNNNLLMGKLAEVDTKPQLEIYADDVKCSHGATVGRIDDEQIFYLRSRGINQQDAQQMIIYAFAAELTEALRDEGLKQQVLARIGQRLPGGAR |  | 2 | 
N-terminal His-tag SufD with H360C mutation (natural protein, E. coli) MAGLPNSSNALQQWHHLFEAEGTKRSPQAQQHLQQLLRTGLPTRKHENWKYTPLEGLINSQFVSIAGEISPQQRDALALTLDSVRLVFVDGRYVPALSDATEGSGYEVSINDDRQGLPDAIQAEVFLHLTESLAQSVTHIAVKRGQRPAKPLLLMHITQGVAGEEVNTAHYRHHLDLAEGAEATVIEHFVSLNDARHFTGARFTINVAANAHLQHIKLAFENPLSHHFAHNDLLLAEDATAFSHSFLLGGAVLRHNTSTQLNGENSTLRINSLAMPVKNEVCDTRTWLEHNKGFCNSRQLHKTIVSDKGRAVFNGLINVAQHAIKTDGQMTNNNLLMGKLAEVDTKPQLEIYADDVKCSCGATVGRIDDEQIFYLRSRGINQQDAQQMIIYAFAAELTEALRDEGLKQQVLARIGQRLPGGAR |  | 2 | 
B1 | ~1 |  | 
